{"source": "paper PMC9841405", "binders": {"B1": {"name": "three-site class II DNA (dsDNA)", "DNA 1": "ATGTGGTCCCCACT", "DNA 2": "TAGTGGGGACCACA"}, "B2": {"name": "two-site class I DNA (dsDNA)", "DNA 1": "ATGTGGGTCCGTGT", "DNA 2": "TACACGGACCCACA"}, "B3": {"name": "one-site class II DNA (dsDNA)", "DNA 1": "ATAGAGTCCCGTGT", "DNA 2": "TACACGGGACTCTA"}, "B4": {"name": "two-site class II DNA (dsDNA)", "DNA 1": "ATGTGGTCCCGTGT", "DNA 2": "TACACGGGACCACA"}, "B5": {"name": "one-site class I DNA (dsDNA)", "DNA 1": "ATAGAGGTCCGTGT", "DNA 2": "TACACGGACCTCTA"}, "B6": {"name": "three-site class I DNA (dsDNA)", "DNA 1": "ATGTGGGTCCCACT", "DNA 2": "TAGTGGGACCCACA"}}, "key": {"[1]": {"biological_target": "T1, AtTCP10-DBD DRH RR mutant (UniProt O82277 1-87, D31A;R32A;H33A;R46A;R48A)", "T1 sequence": "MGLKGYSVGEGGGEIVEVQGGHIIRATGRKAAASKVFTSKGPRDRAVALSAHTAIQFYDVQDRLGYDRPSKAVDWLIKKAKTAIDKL", "assay": "ITC"}, "AtTCP10-DBD DRH mutant [2]": {"biological_target": "T2, AtTCP10-DBD DRH mutant (UniProt O82277 1-87, D31A;R32A;H33A)", "T2 sequence": "T1 sequence with A46R, A48R", "assay": "ITC"}, "AtTCP10-DBD RR mutant": {"biological_target": "T3, AtTCP10-DBD RR mutant (UniProt O82277 1-87, R46A;R48A)", "T3 sequence": "T1 sequence with A31D, A32R, A33H", "assay": "ITC"}, "AtTCP10-DBD": {"biological_target": "T4, AtTCP10-DBD (UniProt O82277 1-87)", "T4 sequence": "T1 sequence with A31D, A32R, A33H, A46R, A48R", "assay": "ITC"}, "AtTCP15-DBD [3]": {"biological_target": "T5, AtTCP15-DBD (UniProt Q9C9L2 51-113)", "assay": "ITC"}, "AtTCP10-DBD DRH mutant [4]": {"biological_target": "T2, AtTCP10-DBD DRH mutant", "assay": "EMSA"}, "AtTCP15-DBD [5]": {"biological_target": "T5, AtTCP15-DBD", "assay": "EMSA"}}, "note": "Substitutions are numbered along the chain they refer to."}
{"binder": "B1", "values": [{"measurement": "Kd", "setting": "[1]", "result": 1620, "unit": "nM"}, {"measurement": "Kd", "setting": "AtTCP10-DBD DRH mutant [2]", "result": 353, "unit": "nM"}, {"measurement": "Kd", "setting": "AtTCP10-DBD RR mutant", "result": 1130, "unit": "nM"}, {"measurement": "Kd", "setting": "AtTCP10-DBD", "result": 8.5, "unit": "nM"}]}
{"binder": "B2", "values": [{"measurement": "Kd", "setting": "AtTCP15-DBD [3]", "result": 109, "unit": "nM"}]}
{"binder": "B3", "values": [{"measurement": "Kd", "setting": "AtTCP10-DBD", "result": 366, "unit": "nM"}, {"measurement": "binding result", "setting": "AtTCP10-DBD DRH mutant [4]", "result": "binds"}]}
{"binder": "B4", "values": [{"measurement": "Kd", "setting": "AtTCP10-DBD", "result": 351, "unit": "nM"}, {"measurement": "binding result", "setting": "AtTCP10-DBD DRH mutant [4]", "result": "binds"}]}
{"binder": "B5", "values": [{"measurement": "binding result", "setting": "AtTCP15-DBD [5]", "result": "binds"}]}
{"binder": "B6", "values": [{"measurement": "Kd", "setting": "AtTCP15-DBD [3]", "result": 38.3, "unit": "nM"}]}
